The target in assay [1] is ROR122 shuffle variant (Ig-like domain of ROR1, CRD and kringle domain of ROR2) (human (ROR1/ROR2 chimera)) (UniProt Q01973). Briefly: cell imaging (CellInsight) on CHO cells expressing the shuffle construct.
In assay [2] the target is ROR112 shuffle variant (Ig-like domain and CRD of ROR1, kringle domain of ROR2) (human (ROR1/ROR2 chimera)) (UniProt Q01973). Described as above.
Chain of ROR112 shuffle variant (Ig-like domain and CRD of ROR1, kringle domain of ROR2) (human (ROR1/ROR2 chimera)) (Q01973 other isoform, or with tags, fused parts or gaps mutant limits assumed): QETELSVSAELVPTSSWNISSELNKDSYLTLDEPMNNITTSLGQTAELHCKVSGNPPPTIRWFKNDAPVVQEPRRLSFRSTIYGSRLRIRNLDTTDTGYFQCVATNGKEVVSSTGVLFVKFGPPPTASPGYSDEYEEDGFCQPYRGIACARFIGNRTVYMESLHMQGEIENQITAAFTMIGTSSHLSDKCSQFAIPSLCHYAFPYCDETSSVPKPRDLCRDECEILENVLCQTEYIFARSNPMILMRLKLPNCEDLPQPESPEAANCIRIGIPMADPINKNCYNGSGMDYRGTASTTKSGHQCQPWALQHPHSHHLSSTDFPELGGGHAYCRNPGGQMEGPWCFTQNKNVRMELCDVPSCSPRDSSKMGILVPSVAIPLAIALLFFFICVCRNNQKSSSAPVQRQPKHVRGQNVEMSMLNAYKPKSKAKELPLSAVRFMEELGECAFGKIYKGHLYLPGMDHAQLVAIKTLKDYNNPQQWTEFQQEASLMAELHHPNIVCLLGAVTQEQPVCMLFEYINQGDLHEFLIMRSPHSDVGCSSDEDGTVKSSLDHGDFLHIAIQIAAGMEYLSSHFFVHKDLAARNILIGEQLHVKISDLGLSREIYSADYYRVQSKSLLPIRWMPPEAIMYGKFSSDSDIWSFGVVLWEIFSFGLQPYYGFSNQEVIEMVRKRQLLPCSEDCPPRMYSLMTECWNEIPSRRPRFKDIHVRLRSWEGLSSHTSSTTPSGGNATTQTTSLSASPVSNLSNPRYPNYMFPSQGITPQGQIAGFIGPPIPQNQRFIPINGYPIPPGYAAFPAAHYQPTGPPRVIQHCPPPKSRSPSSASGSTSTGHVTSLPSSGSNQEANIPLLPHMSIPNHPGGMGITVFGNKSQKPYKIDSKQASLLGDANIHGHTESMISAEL

Chain of ROR122 shuffle variant (Ig-like domain of ROR1, CRD and kringle domain of ROR2) (human (ROR1/ROR2 chimera)) (Q01973 other isoform, or with tags, fused parts or gaps mutant limits assumed): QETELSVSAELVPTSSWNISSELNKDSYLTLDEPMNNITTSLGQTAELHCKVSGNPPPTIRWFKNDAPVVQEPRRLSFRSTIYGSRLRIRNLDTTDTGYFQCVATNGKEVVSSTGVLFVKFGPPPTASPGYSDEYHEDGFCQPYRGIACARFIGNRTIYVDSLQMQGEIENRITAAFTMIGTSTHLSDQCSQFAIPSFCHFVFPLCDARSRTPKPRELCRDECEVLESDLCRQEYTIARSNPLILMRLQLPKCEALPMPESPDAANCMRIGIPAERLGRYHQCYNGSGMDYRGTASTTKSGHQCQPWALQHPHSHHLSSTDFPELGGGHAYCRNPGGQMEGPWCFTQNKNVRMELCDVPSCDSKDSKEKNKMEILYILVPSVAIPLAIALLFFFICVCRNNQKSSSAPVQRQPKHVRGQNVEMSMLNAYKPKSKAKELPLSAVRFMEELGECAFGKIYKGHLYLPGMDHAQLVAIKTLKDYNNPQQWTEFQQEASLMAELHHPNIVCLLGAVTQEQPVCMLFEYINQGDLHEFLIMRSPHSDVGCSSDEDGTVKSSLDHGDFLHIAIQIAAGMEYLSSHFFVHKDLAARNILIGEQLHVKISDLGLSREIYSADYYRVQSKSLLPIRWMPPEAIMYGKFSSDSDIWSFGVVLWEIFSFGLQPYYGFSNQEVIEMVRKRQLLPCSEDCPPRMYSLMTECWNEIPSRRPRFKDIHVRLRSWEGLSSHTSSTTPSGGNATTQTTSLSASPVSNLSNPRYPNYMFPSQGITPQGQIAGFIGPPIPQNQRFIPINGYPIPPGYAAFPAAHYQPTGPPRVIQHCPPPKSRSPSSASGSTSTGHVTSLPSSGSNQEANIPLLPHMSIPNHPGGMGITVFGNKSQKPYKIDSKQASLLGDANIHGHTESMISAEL

B1: chIgG1-ROR2-A (antibody, V domains shown)
VH: QSVEESGGRLVTPGTPLTLTCTVSGFSLSSYSMSWVRQAPGKGLEWIGVIYVNSKTWYANWAKGRFTISKTSTTVDLKITSPTTEDTATYFCARGDAGYTTNSWLWGPGTLVTVSS
VL: AFELTQTPASVSEPVGGTVTIKCQASESIDNYCSWYQQKPGQPPKLLIYQAFKLASGVPSRFRGSGSGTQFTLTISDLESDDAATYYCQSYSGISTTAFGGGTEVVVK
As for B1, the RFU (total spot intensity) in assay [1] and in assay [2] was more than 12000 RFU throughout.

These data come from patent US20230365714A1.
